Experimental data taken from patent US20240029824A1 (University of Washington, published 2024).

Experiments:
DHT09 chain C = target: T1, DHT09 chain C; experiment: co-expression, IMAC, SEC, native MS; chains of one ABC heterotrimer
T1 chain: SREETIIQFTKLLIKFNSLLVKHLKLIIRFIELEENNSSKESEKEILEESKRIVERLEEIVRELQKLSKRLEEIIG
From the text: (§1) Genes encoding 85 heterotrimers in a tricistronic expression vector were obtained, and the proteins were expressed in E. coli and purified via IMAC with only one chain having the 6×His-tag. Nine of the designs (FIG. 3a) had monodisperse SEC peaks (FIG. 3b), were almost exclusively ABC by nMS, and had good SAXS fits to the design models (Table 7). […] Eight of the designs are parallel heterotrimers, while DHTO9 is an antiparallel heterotrimer. […] For 3 other designs, only the ABC heterotrimer was determined to form by nMS (when the respective SEC fraction was analyzed) but the heterotrimer SEC peak was preceded by soluble aggregate that would make building with these constructs difficult downstream. We explored the dependence of cooperativity on connectivity between the three chains by changing the positions of the loops across different helices in DHT03, while keeping the rest of the interface intact. […] The ability to sustain alternate loop closures increases the number of heteromeric building blocks available for future nanostructure assembly applications and may enable rigid fusion of functional domains to the different termini available.
(§2) Samples were analyzed by online buffer exchange native mass spectrometry (nMS) to evaluate sample purity and accurately determine oligomeric states⁴². Multiple instruments were used as the analyses were carried out over the duration of the protein design process. The mass spectrometers used for detection were a Q Exactive™ UHMR modified with a surface-induced dissociation device and an Exactive™ Plus EMR modified with a selection quadrupole and a surface-induced dissociation device (Thermo Fisher Scientific)⁴³. The liquid chromatography systems used for the buffer exchange include a Vanquish™ Duo UHPLC and a Dionex™ Ultimate 3000 HPLC (Thermo Fisher Scientific). A heated electrospray ionization source (HESI-II, Thermo Fisher Scientific) with a spray voltage of ˜4 kV was used for ionization.

DHT09 chain B = target: T2, DHT09 chain B; experiment: as above
T2 chain: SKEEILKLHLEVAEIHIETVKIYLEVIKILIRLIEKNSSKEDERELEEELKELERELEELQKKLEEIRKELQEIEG
From the text: as §1, §2

DHT06 chain B = target: T3, DHT06 chain B; experiment: as above
T3 chain: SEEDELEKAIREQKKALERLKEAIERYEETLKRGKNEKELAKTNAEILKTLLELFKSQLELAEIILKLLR
From the text: as §1, §2

DHT06 chain C = target: T4, DHT06 chain C; experiment: as above
T4 chain: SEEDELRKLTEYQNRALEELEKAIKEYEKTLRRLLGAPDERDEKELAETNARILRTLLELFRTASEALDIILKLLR
From the text: as §1, §2

DHT02 chain C = target: T5, DHT02 chain C; experiment: as above
T5 chain: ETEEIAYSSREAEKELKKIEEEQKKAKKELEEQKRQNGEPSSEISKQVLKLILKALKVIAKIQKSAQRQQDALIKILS
From the text: as §1, §2

DHT02 chain B = target: T6, DHT02 chain B; experiment: as above
T6 chain: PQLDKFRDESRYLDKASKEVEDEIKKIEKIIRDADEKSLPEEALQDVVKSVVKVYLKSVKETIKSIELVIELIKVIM
From the text: as §1, §2

C4-DHT03-02 chain B = target: T7, C4-DHT03-02 chain B; experiment: chains mixed and annealed, SEC, negative stain EM; A4B4C4 ring
T7 construct: four copies in the A4B4C4 ring
T7 chain: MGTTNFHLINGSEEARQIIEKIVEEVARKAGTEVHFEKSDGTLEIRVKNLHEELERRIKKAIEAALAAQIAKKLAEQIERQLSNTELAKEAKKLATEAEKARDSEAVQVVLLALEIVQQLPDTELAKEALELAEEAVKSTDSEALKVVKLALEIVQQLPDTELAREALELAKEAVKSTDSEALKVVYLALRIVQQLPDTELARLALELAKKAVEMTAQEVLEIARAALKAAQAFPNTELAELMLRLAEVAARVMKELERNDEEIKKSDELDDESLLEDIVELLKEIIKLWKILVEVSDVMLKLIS

[1] = target: T8, DHT03 chain C (SEQ ID NO: 59); experiment: as above
T8 chain: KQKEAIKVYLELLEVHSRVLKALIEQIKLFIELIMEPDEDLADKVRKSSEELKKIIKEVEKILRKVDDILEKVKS

DHT10 chain C = target: T9, DHT10 chain C; experiment: co-expression, IMAC, SEC, native MS; chains of one ABC heterotrimer
T9 chain: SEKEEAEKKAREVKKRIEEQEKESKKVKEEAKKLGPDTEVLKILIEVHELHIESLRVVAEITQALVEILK
From the text: as §1, §2

DHT10 chain B = target: T10, DHT10 chain B; experiment: as above
T10 chain: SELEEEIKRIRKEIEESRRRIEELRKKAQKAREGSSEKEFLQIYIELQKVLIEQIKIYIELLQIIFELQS
From the text: as §1, §2

[2] = target: T11, DHT03_variant_AB-2 chain B; experiment: native MS; loop-connectivity variant of DHT03, AB heterodimer
T11 chain: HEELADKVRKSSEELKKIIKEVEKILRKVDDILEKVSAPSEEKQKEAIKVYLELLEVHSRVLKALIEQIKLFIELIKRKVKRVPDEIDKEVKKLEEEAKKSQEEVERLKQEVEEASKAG

[3] = target: T12, DHT03_variant_ABC-2 chain B; experiment: native MS; loop-connectivity variant of DHT03, chains of one ABC heterotrimer
T12 chain: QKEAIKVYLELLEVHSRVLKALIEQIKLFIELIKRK

[4] = target: T13, DHT03_variant_ABC-2 chain C; experiment: as above
T13 chain: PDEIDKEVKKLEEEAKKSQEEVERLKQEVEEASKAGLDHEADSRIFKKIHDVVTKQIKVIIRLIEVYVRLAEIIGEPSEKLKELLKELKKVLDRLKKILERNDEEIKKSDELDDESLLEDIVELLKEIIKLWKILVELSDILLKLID

DHT04 chain B = target: T14, DHT04 chain B; experiment: co-expression, IMAC, SEC, native MS; chains of one ABC heterotrimer
T14 chain: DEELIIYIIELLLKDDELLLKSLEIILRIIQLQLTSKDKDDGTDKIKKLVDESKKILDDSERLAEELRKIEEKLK
From the text: as §1, §2

DHT04 chain C = target: T15, DHT04 chain C; experiment: as above
T15 chain: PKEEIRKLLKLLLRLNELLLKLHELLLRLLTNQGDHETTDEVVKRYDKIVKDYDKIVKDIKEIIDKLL
From the text: as §1, §2

[5] = target: T16, DHT03_variant_AB-4 chain B; experiment: native MS; loop-connectivity variant of DHT03, AB heterodimer
T16 chain: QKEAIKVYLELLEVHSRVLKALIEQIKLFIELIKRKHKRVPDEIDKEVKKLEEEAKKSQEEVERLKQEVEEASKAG

DHT08 chain C = target: T17, DHT08 chain C; experiment: co-expression, IMAC, SEC, native MS; chains of one ABC heterotrimer
T17 chain: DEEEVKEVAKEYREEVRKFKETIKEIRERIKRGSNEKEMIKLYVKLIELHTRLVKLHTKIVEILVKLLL
From the text: as §1, §2

DHT08 chain B = target: T18, DHT08 chain B; experiment: as above
T18 chain: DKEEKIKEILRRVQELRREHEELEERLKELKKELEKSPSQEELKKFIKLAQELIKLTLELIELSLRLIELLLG
From the text: as §1, §2

[6] = target: T19, DHT03_variant_AB-1 chain B; experiment: native MS; loop-connectivity variant of DHT03, AB heterodimer
T19 chain: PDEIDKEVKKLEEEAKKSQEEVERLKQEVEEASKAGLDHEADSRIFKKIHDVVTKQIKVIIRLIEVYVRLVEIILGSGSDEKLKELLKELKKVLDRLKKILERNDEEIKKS

[7] = target: T20, DHT03_variant_AB-3 chain B; experiment: as above
T20 chain: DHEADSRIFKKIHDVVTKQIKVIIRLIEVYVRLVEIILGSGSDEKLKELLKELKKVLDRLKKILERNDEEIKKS

DHT07 chain C = target: T21, DHT07 chain C; experiment: co-expression, IMAC, SEC, native MS; chains of one ABC heterotrimer
T21 chain: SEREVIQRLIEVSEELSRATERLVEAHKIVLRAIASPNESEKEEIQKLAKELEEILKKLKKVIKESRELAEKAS
From the text: as §1, §2

DHT07 chain B = target: T22, DHT07 chain B; experiment: as above
T22 chain: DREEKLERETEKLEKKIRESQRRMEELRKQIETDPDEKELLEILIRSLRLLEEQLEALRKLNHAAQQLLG
From the text: as §1, §2

B1: DHT09 chain A (designed binder)
chain: SEDEDLIRSVRVIQKSVEIILEMVKIIQELLKSTSEEELKELLKKLKRLIEKLEELLRQYEELLKKIKG
DHT09 chain C
  binding result: binds
DHT09 chain B
  binding result: binds

B2: DHT06 chain A (designed binder)
chain: DEKELAKTNAEILKTLLELFEAESRLQEIILKLLERPDEKEEDELKRALERLKEALERLEEAIKRYEETLKRLL
DHT06 chain B
  binding result: binds
DHT06 chain C
  binding result: binds

B3: DHT02 chain A (designed binder)
chain: PDSDELRKLLKQLEDLLQQLKDLIDKAERHNGDNDVILELHEIYLRLLDIYQKLAKIILKLLR
DHT02 chain C
  binding result: binds
DHT02 chain B
  binding result: binds

B4: C4-DHT03-02 chain A (designed binder)
chain: MGNTHFIVVHGGEEARQLAETAVREISKKEGTEVRFEKKDGLLSIEVKNLSEELQRLIQELLQLLVRLAALLEAVRAVEEAIKRNPDNDEAVETAVRLARELKKVAELLQELAKKAGVPAILRGALLALEVAVRAVELAIKSNPDNDEAVETAVRLARELLKVAAELAERAAKTKDEELIKLAQRAIEVAQRAVELAKKSNKDNEEAEKTRLALEAMELALQIFRQLKNTELAREAIELATEAAKATDSEALKVVKLALKIVQQLPDTELAKEALELAKEAVKSTDSEALKVVELALEIVQQLPDTELAKEALKLAKEAVKSTDSEALKVVYLALRIVQQLPDTELAREALELAKEAVKSTDSEQLEVVRLALEIVQLAPDTRLARAALKLAKEAVKSTDQEELKKVKAILRVASEVLKLEEEAKKSQEEVERLKQEVEKASKAGLDHEGDSRIFKKIHDVVTKQIKVILRLIAVYAELVAIIG
notes: four copies in the A4B4C4 ring
C4-DHT03-02 chain B
  binding result: binds
[1]
  binding result: binds

B5: DHT10 chain A (designed binder)
chain: SEEEELKKLQEEIKKLKKQVERLEKESKELEKRLEKSPSEEIAKELLRITAELVEISEELAEATKRLLEIAG
DHT10 chain C
  binding result: binds
DHT10 chain B
  binding result: binds

B6: DHT03_variant_AB-2 chain A (designed binder)
chain: DHEADSRIFKKIHDVVTKQIKVIIRLIEVYVRLVEIILGSGSDEKLKELLKELKKVLDRLKKILERNDEEIKKSDELDDESLLEDIVELLKEIIKLWKILVELSDILLKLID
[2]
  binding result: binds

## HEELADEVRKSSEELKKIIEEVEKILRKVDDILYKVG (designed binder) [DHT03_variant_ABC-2 chain A]
[3]
  binding result: binds
[4]
  binding result: binds

B7: DHT04 chain A (designed binder)
chain: PERELLELLIRLFNSQVKLFELQKELLELLRELLEENSEDNSRKLEDLLRKIQELLKENQDLLYTVEDVLRKLK
DHT04 chain B
  binding result: binds
DHT04 chain C
  binding result: binds

B8: DHT03_variant_AB-4 chain A (designed binder)
chain: DHEADSRIFKKIHDVVTKQIKVIIRLIEVYVRLVEIILGSGSDEKLKELLKELKKVLDRLKKILERNDEEIKKSDELDDESLLEDIVELLKEIIKLWKILVELSDILLKLIGGDDKVRKSSEELKKIIKEVEKILRKVDDILYKVS
[5]
  binding result: binds

B9: DHT08 chain A (designed binder)
chain: SKEEIEKELKKLKKELEELKREIEKSTKKLEEVRGSNSEKELIQIIKEQIEISERLLEISTRLLEIIIKLLG
DHT08 chain C
  binding result: binds
DHT08 chain B
  binding result: binds

B10: DHT03_variant_AB-1 chain A (designed binder)
chain: DESLLEDIVELLKEIIKLWKILVELSDILLKLIGGDDKVRKSSEELKKIIKEVEKILRKVDDILYKVSAPSEEKQKEAIKVYLELLEVHSRVLKALIEQIKLFIELIKR
[6]
  binding result: binds

B11: DHT03_variant_AB-3 chain A (designed binder)
chain: DESLLEDIVELLKEIIKLWKILVELSDILLKLIGGDDKVRKSSEELKKIIKEVEKILRKVDDILYKVSAPSEEKQKEAIKVYLELLEVHSRVLKALIEQIKLFIELIKRKHKRVPDEIDKEVKKLEEEAKKSQEEVERLKQEVEEASKAG
[7]
  binding result: binds

B12: DHT07 chain A (designed binder)
chain: SEKELIQLYVEAQELYAEAFELQVEIFKLLVKILSANSPKDEKEKIEKRIEEVQKRIKEIQERLQEIQKRLEEAG
DHT07 chain C
  binding result: binds
DHT07 chain B
  binding result: binds
